Measurements: US5780265, “Kunitz type plasma kallikrein inhibitors” (Genentech, Inc., dated 1998)
Numbering of substitutions follows the chain as printed. Like-named read-outs stand apart in the source and are kept apart here. Where no end group is shown, it is not given here.

Key:
Human plasma kallikrein [1] = target: T1, Human plasma kallikrein (human, UniProt P03952); experiment: enzyme inhibition of plasma kallikrein (apparent Ki*)
Human plasma kallikrein [2] = target: T1, Human plasma kallikrein; experiment: enzyme inhibition of plasma kallikrein, substrate S2302, fit to the tight-binding equation (apparent Ki*)
Human Factor XIa [3] = target: T2, Human Factor XIa (human, UniProt P03951); experiment: enzyme inhibition of FXIa, chromogenic substrate, fit to the tight-binding equation (apparent Ki*)
Human Factor XIa [4] = target: T2, Human Factor XIa; experiment: as above; remark: listed apart in the source
Human plasma kallikrein [5] = target: T1, Human plasma kallikrein; experiment: enzyme inhibition of plasma kallikrein, substrate S2302, fit to the tight-binding equation (apparent Ki*); remark: listed apart in the source
Procedure: Determination of the apparent equilibrium dissociation constants of selected Kunitz domains with plasma kallikrein and FXIa. The inhibitory activity is expressed as the fractional activity (inhibited rate/uninhibited rate) at varying inhibitor concentrations. The apparent equilibrium dissociation constants were determined by nonlinear regression analysis of the data to equation 1.
Plots of the fractional rate versus inhibitor concentration were fit by nonlinear regression analysis to Equation 1 to determine apparent equilibrium dissociation constants (K_i^*):

Human plasma kallikrein [6] = target: T1, Human plasma kallikrein; experiment: enzyme inhibition of plasma kallikrein (apparent Ki*), against BPTI
Human plasma kallikrein [7] = target: T1, Human plasma kallikrein; experiment: enzyme inhibition of plasma kallikrein (apparent Ki*), against APPI

B1: KALI-D (designed binder)
chain: VREVCSEQAEDGHCRAAHPRWYFDVTEGKCAPFFYGGCGGNRNNFDTEEYCAAVCGSA
Question: How did the Ki (Human plasma kallikrein [1]) turn out when B1 was run?
Answer: < 0.05 nM

Question: And the Ki (Human plasma kallikrein [2])?
Answer: 0.025 nM

Question: What about the Ki (Human Factor XIa [3]) of the same binder?
Answer: 5.7 nM

B2: KALI-E (designed binder)
chain: B1 chain with D11E
Question: Which results are given for B2?
Answer: Ki (Human plasma kallikrein [2]): 0.103 nM; Ki (Human Factor XIa [3]): 4.5 nM

B3: KALI-PV (designed binder)
chain: B1 chain with D11P, F34V
Question: Which results are given for B3?
Answer: Ki (Human plasma kallikrein [2]): 0.166 nM; Ki (Human Factor XIa [3]): 4.1 nM

B4: KALI-PY (designed binder)
chain: B1 chain with D11P, F34Y
modifications: not fully specified (bridges); cysteine pairing not given here
Question: Which Ki (Human plasma kallikrein [2]) does the source give for B4 here?
Answer: 0.136 nM

Question: And the Ki (Human Factor XIa [3])?
Answer: 11.7 nM

B5: KALI-13 (designed binder)
chain: B1 chain with D11S, H18I
Question: For B5, which Ki (Human Factor XIa [4]) is on record?
Answer: 1.4 nM

Question: What about the Ki (Human plasma kallikrein [5]) of the same binder?
Answer: 0.203 nM

B6: KALI-EY (designed binder)
chain: B1 chain with D11E, F34Y
Question: B6 was tested. Which Ki (Human plasma kallikrein [2]) did it give?
Answer: 0.98 nM

Question: What about the Ki (Human Factor XIa [3]) of the same binder?
Answer: 7.3 nM

B7: KALI-EV (designed binder)
chain: B1 chain with D11E, F34V
Question: B7 was tested. Which Ki (Human plasma kallikrein [2]) did it give?
Answer: 0.117 nM

B8: KALI-30 (designed binder)
chain: B1 chain with D11E, H18I, P19L
Question: Which results are given for B8?
Answer: Ki (Human Factor XIa [4]): 0.4 nM; Ki (Human plasma kallikrein [5]): 0.258 nM

B9: KALI-48 (designed binder)
chain: B1 chain with D11T, H18I
Question: What does the source list for B9?
Answer: Ki (Human Factor XIa [4]): 0.7 nM; Ki (Human plasma kallikrein [5]): 0.209 nM

B10: KALI-46 (designed binder)
chain: B1 chain with D11E, H13R, A17S, H18I, P19L
Question: For B10, which Ki (Human Factor XIa [4]) is on record?
Answer: 0.3 nM

Question: And the Ki (Human plasma kallikrein [5])?
Answer: 0.175 nM

B11: KALI-P (designed binder)
chain: B1 chain with D11P
Question: With B11 as the binder, how does the Ki (Human plasma kallikrein [2]) read?
Answer: 0.2 nM

Question: What about the Ki (Human Factor XIa [3]) of the same binder?
Answer: 13.8 nM

B12: KALI-DY (designed binder)
chain: B1 chain with F34Y
Question: With B12 as the binder, how does the “fold more potent than BPTI” value (Human plasma kallikrein [6]) read?
Answer: 3000 fold

Question: And the “fold better inhibition than APPI” value (Human plasma kallikrein [7])?
Answer: > 10000 fold

Question: What about the Ki (Human plasma kallikrein [1]) of the same binder?
Answer: < 0.05 nM

Question: What about the Ki (Human plasma kallikrein [2]) of the same binder?
Answer: 0.015 nM

Question: And the Ki (Human Factor XIa [3])?
Answer: 8.2 nM

B13: KALI-8 (designed binder)
chain: B1 chain with D11L, H18I
Question: For B13, which Ki (Human Factor XIa [4]) is on record?
Answer: 0.3 nM

Question: What about the Ki (Human plasma kallikrein [5]) of the same binder?
Answer: 0.074 nM

B14: KALI-DV (designed binder)
chain: B1 chain with F34V
Question: For B14, which Ki (Human plasma kallikrein [1]) is on record?
Answer: < 0.05 nM

Question: And the Ki (Human plasma kallikrein [2])?
Answer: 0.043 nM

Question: What about the Ki (Human Factor XIa [3]) of the same binder?
Answer: 1.3 nM
